In patent US20100003756:

Legend:
Experiment in all cases: cell_activity
[1] = tested on: ZFN SBS 17622 (BAK) (synthetic); conditions: pair 17622/17623, MDCK cells, CEL-I/Surveyor
[2] = tested on: ZFN SBS 17627 (BAK) (synthetic); conditions: pair 17627/17626, MDCK cells, CEL-I/Surveyor
[3] = tested on: ZFN SBS 10077 (BAX) (synthetic); conditions: BAX ZFNs of Table 1 (pair 10077/10079 inferred), Bak-deficient CHO, 21 of 79 clones Bsl I assay
[4] = tested on: ZFN SBS 17623 (BAK) (synthetic); conditions: pair 17622/17623, MDCK cells, CEL-I/Surveyor
[5] = tested on: ZFN SBS 17626 (BAK) (synthetic); conditions: pair 17627/17626, MDCK cells, CEL-I/Surveyor
[6] = tested on: ZFN SBS 10079 (BAX) (synthetic); conditions: BAX ZFNs of Table 1 (pair 10077/10079 inferred), Bak-deficient CHO, 21 of 79 clones Bsl I assay
[7] = tested on: ZFN SBS 17659 (BAX) (synthetic); conditions: pair 17658/17659, MDCK cells, CEL-I/Surveyor
[8] = tested on: ZFN SBS 17658 (BAX) (synthetic); conditions: pair 17658/17659, MDCK cells, CEL-I/Surveyor

Sequence: AATGATGCAGCATGA (double strand) [BAK 17622 half-site]
- activity (% alleles modified) [1]: 3.7

Sequence: AGGGGTGGCTGGGTAG (double strand) [BAK 17627 half-site]
- activity (% alleles modified) [2]: 1.1

Sequence: CAGGGTGGCTGG (double strand) [BAX 10077 half-site]
- activity (% clones modified) [3]: 27

Sequence: CCGGTGGATCGCGCAGAG (double strand) [BAK 17623 half-site]
- activity (% alleles modified) [4]: 3.7

Sequence: GATCCACCGGGCAATGCA (double strand) [BAK 17626 half-site]
- activity (% alleles modified) [5]: 1.1

Sequence: GATCCAGACAAG (double strand) [BAX 10079 half-site]
- activity (% clones modified) [6]: 27

Sequence: GGTTGGGTGAGGCCTG (double strand) [BAX 17659 half-site]
- activity (% alleles modified) [7]: 8

Sequence: GTCCTGGATCCAGCC (double strand) [BAX 17658 half-site]
- activity (% alleles modified) [8]: 8
